In PMC10304930:

Legend:
[1] = biological target: authentic main protease (M^pro) from SARS-CoV, without tag (SARS-CoV) (UniProt P0C6X7)
[2] = biological target: authentic main protease (M^pro) from SARS-CoV, without tag (SARS-CoV) (UniProt P0C6X7); assay: SEC; […]; 40 mM Tris-HCl, 100 mM NaCl, 1 mM DTT, pH 8.0; 0.5 mL/min; […]
[3] = biological target: tagged main protease from SARS-CoV with 34 extra amino acids at the N-terminus (SARS-CoV) (UniProt P0C6X7)

Substance	kcat/Km, FRET-based cleavage assay (Dabcyl/Edans peptide substrate) [1]	stoichiometry N [2]	kcat/Km, FRET-based cleavage assay (Dabcyl/Edans peptide substrate) [3]
authentic main protease (M^pro) from SARS-CoV, without tag (from UniProt P0C6X7) (enzyme)	2790 M⁻¹ s⁻¹	2	–
tagged main protease from SARS-CoV with 34 extra amino acids at the N-terminus (from UniProt P0C6X7) (enzyme)	–	–	17 M⁻¹ s⁻¹
